In patent US20090099193:

Target: TK substrate 1 (HTRF KinEASE-TK kit; Cisbio Inc.)

B1: EML4-ALK fusion polypeptide v3 having the FLAG tag at the N-terminus (protein)
chain: MDGFAGSLDDSISAASTSDVQDRLSALESRVQQQEDEITVLKAALADVLRRLAISEDHVASVKKSVSSKGQPSPRAVIPMSCITNGSGANRKPSHTSAVSIAGKETLSSAAKSGTEKKKEKPQGQREKKEESHSNDQSPQIRASPSPQPSSQPLQIHRQTPESKNATPTKSIKRPSPAEKSHNSWENSDDSRNKLSKIPSTPKLIPKVTKTADKHKDVIINQAKMSTRKKNSQVYRRKHQELQAMQMELQSPEYKLSKLRTSTIMTDYNPNYCFAGKTSSISDLKEVPRKNITLIRGLGHGAFGEVYEGQVSGMPNDPSPLQVAVKTLPEVCSEQDELDFLMEALIISKFNHQNIVRCIGVSLQSLPRFILLELMAGGDLKSFLRETRPRPSQPSSLAMLDLLHVARDIACGCQYLEENHFIHRDIAARNCLLTCPGPGRVAKIGDFGMARDIYRASYYRKGGCAMLPVKWMPPEAFMEGIFTSKTDTWSFGVLLWEIFSLGYMPYPSKSNQEVLEFVTSGGRMDPPKNCPGPVYRIMTQCWQHQPEDRPNFAIILERIEYCTQDPDVINTALPIEYGPLVEEEEKVPVRPKDPEGVPPLLVSQQAKREEERSPAAPPPLPTTSSGKAAKKPTAAEVSVRVPRGPAVEGGHVNMAFSQSNPPSELHRVHGSRNKPTSLWNPTYGSWFTEKPTKKNNPIAKKEPHERGNLGLEGSCTVPPNVATGRLPGASLLLEPSSLTANMKEVPLFRLRHFPCGNVNYGYQQQGLPLEAATAPGAGHYEDTILKSKNSMNQPGP
- count of HTRF (phosphorylation of the peptide substrate), 100 uM ATP against no ATP: increased by about 20 times by the addition of ATP compare to no addition of ATP
